One molecule from article PMC3419727, “Identifying the Hotspots on the Top Faces of WD40-Repeat Proteins from Their Primary Sequences by β-Bulges and DHSW Tetrads” (PLoS ONE, 2012) can be followed below.

Substitutions are numbered along the chain they refer to. Values joined by “and” are separate entries in the source; they are usually repeats but may differ in a detail not shown here. Equal values may be shown once.

For assay [1], the target named is Leu524Ala at D-1 and Phe557Ala at R1-2. In words: ITC; Fep1 (~1.4 mM) injected, 2 µl each time, into Tup11 WT or mutant (~0.2 mM); 25°C; 1×PBS pH 7.4, 150 mM NaCl; iTC200 (MicroCal); Fep1 into buffer subtracted as background.
The target in assay [2] is The remained five residues (Ala substitutions at R1 positions of Tup11). The description is as above.
The target of assay [3] is T1, S. japonicus Tup11 WD40 domain (amino acids 301–630), wild type (S. japonicus, UniProt B6JV84 301-630).
T1 chain: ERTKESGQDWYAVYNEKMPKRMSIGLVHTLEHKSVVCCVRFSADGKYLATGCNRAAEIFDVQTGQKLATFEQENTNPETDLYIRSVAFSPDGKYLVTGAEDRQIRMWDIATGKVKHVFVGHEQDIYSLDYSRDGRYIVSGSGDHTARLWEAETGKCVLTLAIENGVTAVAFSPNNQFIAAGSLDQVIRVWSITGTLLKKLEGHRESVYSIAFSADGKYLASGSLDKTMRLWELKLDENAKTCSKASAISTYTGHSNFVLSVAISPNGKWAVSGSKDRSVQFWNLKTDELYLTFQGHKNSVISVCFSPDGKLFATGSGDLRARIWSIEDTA
The assay is described as follows: ITC.

Assay [4] addresses T2, S. japonicus Tup11 WD40 domain (301–630) Tyr382Ala (S. japonicus, UniProt B6JV84 301-630, Tyr382Ala).
T2 construct: Tup11, S. japonicus, WD40 domain, amino acids 301-630
T2 sequence (looked up): T1 chain with Y82A
In words: ITC; Fep1 (~1.4 mM) injected, 2 µl each time, into Tup11 WT or mutant (~0.2 mM); 25°C; 1×PBS pH 7.4, 150 mM NaCl; iTC200 (MicroCal); Fep1 into buffer subtracted as background. The following applies: both partners purified.

B1: C-terminal region of S. pombe Fep1 (amino acids 319–564) (domain or fragment, UniProt Q10134 319-564, looked up)
chain: AAGEPDNNGKVYYSYGPTQEQSILPLPENKHEGLPPYQNEYVPNGIRANQVVYPGQLVAVGNDSSKQLSESTTSNTDNNGVATANQSNPLGMKFHLPPILPVGESVCLPPRTSAKPRIAEGIASLLNPEEPPSNSDKQPSMSNGPKSEVSPSQSQQAPLIQSSTSPVSLQFPPEVQGSNVDKRNYALNVLSQLRSQHDLMIQELHNLNQHIQQIDEWLRSSDNENMASEHIKSSTPAVVASGALQT
notes: Fep1, GATA-factor, S. pombe, C-terminal region, amino acids 319-564
In the case of B1, the reduction of binding free energy against wild type in assay [1] was 0.5 kcal/mol and 0.8 kcal/mol; in assay [2] it was 1 kcal/mol and 1.5 kcal/mol; in assay [4] it was ~1.7 kcal/mol. Further, the Ka in assay [3] stood at 70000 M⁻¹.
